Source: patent US20140348834A1 (published 2014)
Residue numbers refer to the chain shown, from its start. Where two headings read alike, the source gives them in different places.

T1: rat IL-17A (rat, UniProt Q61453 18-150, limits assumed)
T1 sequence (looked up): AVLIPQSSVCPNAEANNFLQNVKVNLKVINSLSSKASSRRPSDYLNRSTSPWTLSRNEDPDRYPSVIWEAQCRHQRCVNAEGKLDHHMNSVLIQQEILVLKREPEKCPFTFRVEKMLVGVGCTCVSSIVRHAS

T2: mouse IL-17A (mouse, UniProt Q62386 26-158, limits assumed)
T2 sequence (looked up): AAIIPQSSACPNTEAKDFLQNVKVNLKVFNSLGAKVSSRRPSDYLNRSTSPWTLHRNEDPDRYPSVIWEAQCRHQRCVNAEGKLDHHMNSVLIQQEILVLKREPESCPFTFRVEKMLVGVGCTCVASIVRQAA

T3: rat IL-17A (rat, UniProt Q61453 18-150, limits assumed)
T3 sequence (looked up): T1 sequence (looked up)

T4: mouse IL-17A (mouse, UniProt Q62386 26-158, limits assumed)
T4 construct: Purified recombinant protein in SPR; also called MuIL-17A; murine IL-17A
T4 sequence (looked up): T2 sequence (looked up)

B1: IL17-B6-5 (antibody, V domains shown)
VH: EVQLVQSGAEVKKPGESVKISCKASGGSFRSYGISWVRQAPGQGLEWMGGITHFFGITDYAQKFQGRVTITADESTTTAYMELSGLTSDDTAVYYCAREPNDFWNGYYDTHDFDSWGQGTTVTVSS
VL: EIVLTQSPDFQSVTPKEKVTITCRASQNIGSELHWYQQKPDQSPKLLIKYASHSISGVPSRFSGSGSGTDFTLTINGLEAEDAATYYCHQSDTLPHTFGQGTKVDIK
notes: also called pJP243 B6.1 #5VH / pJP244 B6.1 #5VK
B2: IL17-B6-11 (antibody, V domains shown)
VH: B1 VH with E16S, I20V, R30L, I34F, H53P, I57F, T58A, D109T, D112H, S115Y
VL: DVVMTQSPDFQSVTPKEKVTITCRASQNIGSALHWYQQKPDQSPKLLIKYASQSISGVPSRFSGSGSGTDFTLTINGLEAEDAGTYYCHQSTSLPHTFGQGTKLDIKR
B3: IL17-B6-15 (antibody, V domains shown)
VH: B1 VH with V18L, R30S, S31G, I34T, I57A, T58V, E99D, D102E, D109A, S115Y
VL: B1 VL with S31A, A84G, S91T, T93R, H96Y, T97S, Q100P
notes: also called pJP245 B6.1 #15VH / pJP246 B6.1 #15Vk
B4: IL17-B6-16 (antibody, V domains shown)
VH: EVQLVQSGAEVKMPGSSLKISCKASGGSFRGYGISWVRQAPGQGLEWMGGITPFFGWADYAQKFQGRVTITADESTTTAYMELSGLTSDDTAVYYCARDPNEFWNGYYDTHHFDYWGQGTTVTVSS
VL: B1 VL with N28D, E32A, I55V, A84G, T93I, Q100P
notes: also called pJP247 B6.1 #16VH / pJP248 B6.1 #16Vk
B5: IL17-TN-K7-B6 (antibody, V domains shown)
VH: EVQLVQSGAEVKKPGESLKISCKASGGSFRSYGISWVRQAPGQGLEWMGGITPILGTANYAQKFQGRVTITADESTTTAYMELSGLTSDDTAVYYCAREPNDFWNGYYTTHHFDYWGQGTPVTVSS
VL: B2 VL
notes: Fully human monoclonal antibody from mRNA display
B6: IL17-TN-L7-G9 (antibody, V domains shown)
VH: EVQLLESGGGVVQPGRSLRLSCAASGFIFSNYGMHWVRQAPGKGLEWVAVISYDGSNKYYADSVKGRFTISRDNSKNTLYLEMNSLRPEDTAVYYCAKVGASGDYYYSYGLDVWGQGTTVTVSS
VL: QSGLTQPPSASGTPGQTVSISCSGSNSNIGSHSVNWYQQVPGAAPKLLMYGIGQRPSGVPDRFSVSQSGTSASLAISGLQSEDEADYYCATWDDSLGGYVFGSGTKVTVLG
notes: as for B5
B7: IL17-TN-L7-A7 (antibody, V domains shown)
VH: B6 VH with R16T, S17F, S25T, I28T, N31A, K43R, I51T, T119M
VL: B6 VL
notes: as for B5
B8: IL17-h5C5.3 (antibody, V domains shown)
VH: EVQLVQSGAEVKKPGASVKVSCKASGYTFTDYEFHWVRQAPGQGLEWIGVIHPGNGGTAYNQNFRDRATLTADKSTSTAYMELSSLRSEDTAVYYCTRFLTYEGYFDYWGQGTLVTVSS
VL: NIVMTQTPKFLLVSPGDRVTITCKASQSVSIDVGWFQQKPGQSPKLLIYHASNRYTGVPDRFTGSGYGTDFTFTVNTVQAEDLAVYFCQQDYSSPYTFGGGTKLELKR
notes: IgG; constant regions not specified
B9: m5C5.hIgG1 (antibody, V domains shown)
VH: QVQLQQSGAELVRPGASVKLSCKALGYTFTDYEFHWVKQTPVHGLEWIGVIHPGNGGTAYNQNFRDKATLTADKSSSTAYMELSSLTSEDSGVYYCTRFLTYEGYFDYWGQGTALTVSS
VL: B8 VL
B10: IL17-h5C5.9 (antibody, V domains shown)
VH: B8 VH
VL: DIQMTQSPSSLSASVGDRVTITCKASQSVSIDVGWFQQKPGKSPKLLIYHASNRYTGVPSRFSGSGSGTDFTFTISSLQPEDFATYFCQQDYSSPYTFGQGTKLEIKR
notes: IgG; constant regions not specified; also called h5C5.9 (VH.1b-Vk.1a)
B11: IL17-h5C5.8 (antibody, V domains shown)
VH: B8 VH with I48M, A68V, L70I, T97A
VL: B10 VL
notes: IgG; constant regions not specified; also called h5C5.8 (VH.1-Vk.1a)
B12: IL17-TN-L7-C8 (antibody, V domains shown)
VH: EVQLVQSGAEVKKPGASVKVSCKASGYTFSDFDIDWVRQATGLGLEWMGWMNPNSGNTGVAPKFRGRVSMTFNTAIRTAYLELSSLRPDDTAVYFCARSSESEGITIGFDNWGQGTLVTVSS
VL: SYELTQPPSVSVSPGQTASIPCSGDKLGNRYACWYKQKPGQPPVLVIYQDNKRPSGISERYSGSNYGDTATLTITGTQAMDEADYYCQTWDSTTGSYVFGTGTKVTVLG
notes: Fully human monoclonal antibody from mRNA display; also called IL-TN-L7-C8

Columns and labels:
human IL-17A [1] = biological target: T5, human IL-17A (human, UniProt Q16552 24-155); experiment: cell-based or functional assay
T5 sequence (Q16552 24-155 limits assumed): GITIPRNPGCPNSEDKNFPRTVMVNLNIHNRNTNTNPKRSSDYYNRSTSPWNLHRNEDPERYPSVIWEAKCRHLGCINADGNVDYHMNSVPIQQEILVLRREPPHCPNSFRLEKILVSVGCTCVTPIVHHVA

human IL-17A/F [2] = biological target: T6, human IL-17A/F (human, UniProt Q16552 24-155; Q96PD4 31-163); experiment: cell-based or functional assay
T6 sequence (Q16552 24-155 limits assumed, chain 1 of 2): as the sequence (Q16552 24-155 limits assumed) above
T6 sequence (Q96PD4 31-163 limits assumed, chain 2 of 2): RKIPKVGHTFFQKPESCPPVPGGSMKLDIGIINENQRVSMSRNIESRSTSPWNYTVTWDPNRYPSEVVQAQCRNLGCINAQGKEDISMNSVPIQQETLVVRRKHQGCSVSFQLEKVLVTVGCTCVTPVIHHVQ

[3] = biological target: T7, cynomolgous monkey (cyno) IL-17A (cynomolgus monkey, UniProt A0A2K5TTB0 24-155); experiment: cell-based or functional assay
rat IL-17A [4] = biological target: T1, rat IL-17A; experiment: cell-based or functional assay
mouse IL-17A [5] = biological target: T2, mouse IL-17A; experiment: cell-based or functional assay
rabbit IL-17A = rabbit IL-17A (rabbit); experiment: cell-based or functional assay
human IL-17A [6] = biological target: T5, human IL-17A; experiment: ELISA, captured antibody, serially diluted biotin-IL-17 (Example 1.5.1)
Description: The following protocol is used to characterize the binding of IL-17 antibodies to human IL-17 by enzyme-linked immunosorbent assay (ELISA). […] 1. Coat ELISA plate with 50 μl per well of Goat anti Mouse IgG-Fc at 2 ug/ml, overnight at 4° C. […] 2. Wash plate 3×PBS/Tween. […] 3. Add 50 μl Mab diluted to 1 μg/ml in PBS/0.1% BSA to appropriate wells. Incubate 1 hr at room temperature (RT). […] 4. Wash plate 3× with PBS/Tween. […] 5. Add 50 μl of serial diluted biotin-IL17 (human IL-17, IL-17A/F, cyno IL-17) to appropriate wells. Incubate 1 hr at room temperature (RT). […] 6. Wash plate 3× with PBS/Tween. […] 7. […] Incubate 1 hr at RT. […] 8. Wash plate 3× with PBS/Tween. […] 9. […] 10. Stop reaction with 50 μl 2N H₂SO₄. […] Read absorbance at 450 nm.

human IL-17A [7] = biological target: T5, human IL-17A; experiment: cell-based or functional assay; remark: listed apart in the source
human IL-17A/F [8] = biological target: T6, human IL-17A/F; experiment: cell-based or functional assay; remark: listed apart in the source
[9] = biological target: T7, cynomolgous monkey (cyno) IL-17A; experiment: cell-based or functional assay; remark: listed apart in the source
human IL-17A [10] = biological target: T8, human IL-17A (human, UniProt Q16552 24-155); experiment: hIL17A ELISA
T8 construct: Recombinant; biotinylated in the ELISA; also called hIL-17; hIL17A
T8 sequence (Q16552 24-155): as the sequence (Q16552 24-155 limits assumed) above

human IL-17A [11] = biological target: T8, human IL-17A; experiment: cell-based or functional assay; remark: listed apart in the source
cynomolgus monkey IL-17A [12] = biological target: T9, cynomolgus monkey IL-17A (cynomolgus monkey, UniProt A0A2K5TTB0 24-155); experiment: cell-based or functional assay
rat IL-17A [13] = biological target: T3, rat IL-17A; experiment: cell-based or functional assay; remark: listed apart in the source
human IL-17A [14] = biological target: T8, human IL-17A; experiment: SPR (Biacore 3000), antibody captured by anti-Fc, antigen in solution;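 note: purified recombinant IL-17 antigens flowed over captured antibodies in HBS-EP buffer, global Langmuir one-to-one fit of association and dissociation phases, KD derived from koff over kon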
human IL-17A/F [15] = biological target: T10, human IL-17A/F (human, UniProt Q16552 24-155; Q96PD4 31-163); experiment: as above
T10 construct: Recombinant; biotinylated in the ELISA; also called hIL-17A/F; HuIL-17A/F
T10 sequence (Q16552 24-155, chain 1 of 2): as the sequence (Q16552 24-155 limits assumed) above
T10 sequence (Q96PD4 31-163, chain 2 of 2): as the sequence (Q96PD4 31-163 limits assumed, chain 2 of 2) above

cynomolgus monkey IL-17A [16] = biological target: T9, cynomolgus monkey IL-17A; experiment: as above
rat IL-17A [17] = biological target: T3, rat IL-17A; experiment: as above
mouse IL-17A [18] = biological target: T4, mouse IL-17A; experiment: as above

T9 sequence (A0A2K5TTB0 entry or part of it): as the sequence (Q16552 24-155 limits assumed) above, with T3A, P8S, N34S, I77V, N78K, P104R counted along it
T7 sequence (A0A2K5TTB0 entry or part of it): as the sequence (Q16552 24-155 limits assumed) above, with T3A, P8S, N34S, I77V, N78K, P104R counted along it

| Binder | Potency (pM), IL-17-driven IL-6 production in HS27 cells (human IL-17A [1]) [pM] | Potency (pM), IL-17-driven IL-6 production in HS27 cells (human IL-17A/F [2]) [pM] | Potency (pM), IL-17-driven IL-6 production in HS27 cells [3] [pM] | Potency (pM), IL-17 and TNF-induced IL-6 secretion from NIH3T3 cells (rat IL-17A [4]) [pM] | EC50 (human IL-17A [6]) [nM] | Potency (nM), IL-17-driven IL-6 production in HS27 cells (human IL-17A [7]) [nM] | Potency (nM), IL-17-driven IL-6 production in HS27 cells (human IL-17A/F [8]) [nM] | Potency (nM), IL-17-driven IL-6 production in HS27 cells [9] [nM] | Potency (pM), IL-17-driven IL-6 production in HS27 cells (human IL-17A [11]) [pM] | Potency (pM), IL-17 and TNF-alpha-driven IL-6 production in NIH3T3 cells (rat IL-17A [13]) [pM] | also measured |
| --- | --- | --- | --- | --- | --- | --- | --- | --- | --- | --- | --- |
| B1 | 18 | 134 | 12 | 73 | 0.22 | – | – | – | – | – | Potency (pM), IL-17 and TNF-induced IL-6 secretion from NIH3T3 cells (mouse IL-17A [5]): 64 pM; Potency (pM), IL-17 and TNF-induced IL-6 secretion from NIH3T3 cells (rabbit IL-17A): 320 pM |
| B2 | 20 | 71 | 33 | 6100 | 0.058 | – | – | – | – | – | – |
| B3 | 24 | 162 | 10 | 17 | 0.13 | – | – | – | – | – | – |
| B4 | 26 | 114 | 13 | 167 | 0.16 | – | – | – | – | – | – |
| B5 | – | – | – | – | 0.447 | 4.5 | 8.1 | 18 | – | – | – |
| B6 | – | – | – | – | 0.165 | 0.8 | 2 | 12 | – | – | – |
| B7 | – | – | – | – | 0.131 | 1.8 | 1.8 | 12 | – | – | – |
| B8 | – | – | – | – | – | – | – | – | 5 | 2520 | EC50 (human IL-17A [10]): 1.37 nM; Potency (pM), IL-17-driven IL-6 production in HS27 cells (cynomolgus monkey IL-17A [12]): 12 pM |
| B9 | – | – | – | – | – | – | – | – | 11 | 4910 | – |
| B10 | – | – | – | – | – | – | – | – | 14 | 5680 | EC50 (human IL-17A [10]): 0.03 nM; Potency (pM), IL-17-driven IL-6 production in HS27 cells (cynomolgus monkey IL-17A [12]): 19 pM; Kd (human IL-17A [14]): 0.44 nM; koff (human IL-17A [14]): 0.000449 s⁻¹; kon (human IL-17A [14]): 1.02e+06 M⁻¹ s⁻¹; Kd (human IL-17A/F [15]): 1.21 nM; koff (human IL-17A/F [15]): 0.00115 s⁻¹; kon (human IL-17A/F [15]): 950000 M⁻¹ s⁻¹; Kd (cynomolgus monkey IL-17A [16]): 0.228 nM; koff (cynomolgus monkey IL-17A [16]): 0.000239 s⁻¹; kon (cynomolgus monkey IL-17A [16]): 1.05e+06 M⁻¹ s⁻¹; Kd (rat IL-17A [17]): 8.48 nM; koff (rat IL-17A [17]): 0.00958 s⁻¹; kon (rat IL-17A [17]): 1.13e+06 M⁻¹ s⁻¹; Kd (mouse IL-17A [18]): 2.09 nM; koff (mouse IL-17A [18]): 0.000582 s⁻¹; kon (mouse IL-17A [18]): 279000 M⁻¹ s⁻¹ |
| B11 | – | – | – | – | – | – | – | – | 17 | 13100 | EC50 (human IL-17A [10]): 0.07 nM; Potency (pM), IL-17-driven IL-6 production in HS27 cells (cynomolgus monkey IL-17A [12]): 20 pM; Kd (human IL-17A [14]): 0.393 nM; koff (human IL-17A [14]): 0.000444 s⁻¹; kon (human IL-17A [14]): 1.13e+06 M⁻¹ s⁻¹; Kd (human IL-17A/F [15]): 1.28 nM; koff (human IL-17A/F [15]): 0.00121 s⁻¹; kon (human IL-17A/F [15]): 948000 M⁻¹ s⁻¹; Kd (cynomolgus monkey IL-17A [16]): 0.217 nM; koff (cynomolgus monkey IL-17A [16]): 0.000226 s⁻¹; kon (cynomolgus monkey IL-17A [16]): 1.04e+06 M⁻¹ s⁻¹; Kd (rat IL-17A [17]): 14.2 nM; koff (rat IL-17A [17]): 0.011 s⁻¹; kon (rat IL-17A [17]): 774000 M⁻¹ s⁻¹; Kd (mouse IL-17A [18]): 1.86 nM; koff (mouse IL-17A [18]): 0.000531 s⁻¹; kon (mouse IL-17A [18]): 285000 M⁻¹ s⁻¹ |
| B12 | – | – | – | – | 0.517 | 4.5 | 2.6 | 18 | – | – | – |
